Drawing on patent US20230285589A1, “LIPOSOME COMPLEX FOR CANCER TREATMENT, COMPRISING NOVEL CD47 BINDER AND POLYNUCLEOTIDE” (priority 2020, published 2023), this text covers ka, kd and Kd for one substance.

Usually Kd stands for the constant that tells how readily two partners part at equilibrium.

The target in this experiment is recombinant CD47 protein (Homo sapiens, UniProt Q08722). As to the kind of experiment: SPR, CD47 conjugated to CM5 chip. To be noted: 250 RU CD47, 1:1 binding model. The protocol:
Specifically, the recombinant CD47 protein was conjugated to the surface of the CM5 chip by a target SPR reaction of 250 RU through an EDC-NHS reaction to be used, and for HBS-P, the sensogram obtained through a process of association for 3 minutes and dissociation for 10 minutes at a flow rate of 30 μL/minutes was analyzed with the BiaEvaluation software using a 1:1 binding model and global fitting.

Chain of recombinant CD47 protein (Q08722 19-323): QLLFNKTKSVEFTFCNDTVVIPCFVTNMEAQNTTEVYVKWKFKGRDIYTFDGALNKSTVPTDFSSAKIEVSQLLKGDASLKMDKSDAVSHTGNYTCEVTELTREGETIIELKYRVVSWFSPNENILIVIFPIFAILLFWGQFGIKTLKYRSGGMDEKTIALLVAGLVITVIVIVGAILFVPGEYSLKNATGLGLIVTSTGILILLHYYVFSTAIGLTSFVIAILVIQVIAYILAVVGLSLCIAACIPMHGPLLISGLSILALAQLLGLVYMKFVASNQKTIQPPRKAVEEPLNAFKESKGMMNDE

As for “Sirpα: pure Sirpa (SEQ ID NO: 25), water-soluble domain of the original CD47 ligand”, the ka came out at 610000 M⁻¹ s⁻¹ and the kd worked out at 0.37 s⁻¹. Also, the dissociation constant (Kd) (listed as Sirpa(wt)) turned out to be 280 nM.
